Entries after “also recorded” stand apart in the source; their conditions may differ.

We go through one molecule from patent publication US10385103B2, “Cell-permeable (ICP)-SOCS3 recombinant protein and uses thereof” (CELLIVERY THERAPEUTICS, INC., priority 2014, dated 2019).

Data set [1] concerns Chang cell. The data set is described as follows: Cell viability of non-cancer cells, CellTiter-Glo. The format is cell-based, human. Particulars: 10 μM over 4 days. As for the experimental part: Cells originated from human hepatocellular carcinoma cell (Hep3B, HepG2, Huh-7, SK-Hep1), human normal cells (HEK293, HaCaT, Chang liver cell) and mouse fibroblast (NIH3T3) were purchased from ATCC (Manassas, Va., USA) and KCLB (Seoul, Korea). All the cells were maintained as recommended by the supplier. These cells (3×10^3/well) were seeded in 96 well plates. The next day, cells were treated with DMEM (vehicle) or 10 μM recombinant SOCS3 proteins for 96 hrs in the presence of serum (2%). Proteins were replaced daily. Cell growth and survival were evaluated with the CellTiter-Glo Cell Viability Assay (Promega, Madison, Wis.). Measurements using a Luminometer (Turner Designs, Sunnyvale, Calif.) were conducted following the manufacturer's protocol.

Data set [2] has as its system NIH3T3 cells. Briefly: Intracellular delivery and localization of FITC-labeled SOCS3 recombinant proteins (confocal microscopy). The format is cell-based, mouse. To be noted: 10 μM FITC-labeled SOCS3 protein, 1 hour, 37° C. The protocol: To examine cell-permeability of SOCS3 recombinant protein, SOCS3 recombinant proteins were conjugated to 5/6-fluorescein isothiocyanate (FITC). RAW 264.7 (KCLB, Seoul, South Korea) (FIG. 20) or NIH3T3 cells (KCLB, Seoul, South Korea) (FIG. 21) were treated with 10 μM FITC-labeled SOCS3 recombinant proteins and cultivated for 1 hr at 37° C.
After cultivation, the cells were washed three times with ice-cold PBS (Phosphate-buffered saline, Hyclone, USA) and treated with proteinase K (10 μg/mL, SIGMA, USA) to remove surface-bound proteins, and internalized proteins were measured by flow cytometry (FlowJo cytometric analysis software, Guava, Millipore, Darmstadt, Germany). Untreated cells (gray) and equimolar concentration of unconjugated FITC (FITC only, green)-treated cells were served as control (FIG. 20). Each of NIH3T3 cells was incubated for 1 hour at 37° C. with 10 μM FITC-labeled SOCS3 protein. For nuclear staining, a mixture of […] Mounting Medium (Vector laboratories, Burlingame, Calif.) and DAPI (4′,6-diamidino-2-phenylindole) was added to NIH3T3 cells, and visualized using a confocal laser microscope (LSM700, Zeiss, Germany) (FIG. 21).

B1: HM165S3B: His-tagged recombinant protein of aMTD165, human SOCS3 and solubilization domain B; prototype improved cell-permeable SOCS3 (protein)
chain: MGSSHHHHHHSSGLVPRGSHMALAVPVALAIVPVTHSKFPAAGMETSRPLDTSLRLKTFSSKSEYQLVVNAVRKLQESGFYWSAVTGGEANLLLSAEPAGTFLIRDSSDQRHFFTLSVKTQSGTKNLRIQCEGGSFSLQSDPRSTQPVPRFDCVLKLVHHYMETPPPGAPSFPSPPTEPSSEVPEQPSAQPLPGSPPRRAYYIYSGGEKIPLVLSRPLSSNVATLQHLCRKTVNGHLDSYEKVTQLPGPIREFLDQYDAPLGSMAEQSDKDVKYYTLEEIQKHKDSKSTWVILHHKVYDLTKFLEEHPGGEEVLGEQAGGDATENFEDVGHSTDARELSKTYIIGELHPDDRSKIAKPSETL
modifications: Amino acid sequence of HM165S3B
On to B1, for which the “cell viability of non-cancer cells (Chang cell)” value in data set [1] is recorded as “not overly toxic to normal cells”. The “intracellular delivery and localization” value in data set [2] was “localized to various extents in cytoplasm; also recorded: displayed more uniform cellular distribution”.
